The record followed here is PMC8041770 (2021).

The labels stand for the following.
B1: yeast-displayed wild-type human LIFR CBM I–Ig-like domains (Gln45 to Gln337) [human] / recombinant human LIF, histidine-tagged (hLIF-His) [human] (parent complex)
chain 1: QKKGAPHDLKCVTNNLQVWNCSWKAPSGTGRGTDYEVCIENRSRSCYQLEKTSIKIPALSHGDYEITINSLHDFGSSTSKFTLNEQNVSLIPDTPEILNLSADFSTSTLYLKWNDRGSVFPHRSNVIWEIKVLRKESMELVKLVTHNTTLNGKDTLHHWSWASDMPLECAIHFVEIRCYIDNLHFSGLEEWSDWSPVKNISWIPDSQTKVFPQDKVILVGSDITFCCVSQEKVLSALIGHTNCPLIHLDGENVAIKIRNISVSASSGTNVVFTTEDNIFGTVIFAGYPPDTPQ
chain 2: not shown

In this test the parent is B1. The test is described as follows: flow cytometry of yeast-displayed LIFR variants; parent: 1; read off a plot. (In general: A flow cytometer gives signals particle by particle.)
Turning to chain 1 L218P, chain 1 H240R, chain 1 N242D, chain 1 I257V, chain 1 I260V, chain 1 V262A, chain 1 T273I, chain 1 N277D, the ratio to parent was around 13.

With chain 1 L218P, chain 1 H240R, chain 1 I257V, chain 1 I260V, chain 1 V262A, chain 1 T273I, chain 1 N277D, the ratio to parent was around 15.

On to chain 1 I217V, chain 1 L218P, chain 1 N242D, chain 1 I257V, chain 1 I260V, chain 1 V262A, chain 1 T273I, chain 1 N277D, for which the ratio to parent is around 12.

For chain 1 I217V, chain 1 L218P, chain 1 N242D, chain 1 V262A, chain 1 T273I, chain 1 N277D, the ratio to parent is around 6.

Consider chain 1 L218P, chain 1 N242D, chain 1 I257V, chain 1 N277D, for which the ratio to parent is around 6.

chain 1 L218P, chain 1 H240R, chain 1 I257V, chain 1 V262A, chain 1 T273I, chain 1 N277D: the ratio to parent is around 12.

With chain 1 I217V, chain 1 L218P, chain 1 H240R, chain 1 N242D, chain 1 I257V, chain 1 I260V, chain 1 V262A, chain 1 T273I, chain 1 N277D, the ratio to parent was around 13.
